B1: HDV Ribozyme (parent)
chain: GGCCGGCAUGGUCCCAGCCUCCUCGCUGGCGCCGGCUGGGCAACAUUCCGAGGGGACCGUCCCCUCGGUAAUGGCGAAUGGGACCCA

Variants of: B1
Test: self-cleavage, relative activity (ratio to wild type); higher = more cleavage; co-transcriptional

Row | Variant | self-cleavage
1 | C19U C84G | 0.0332
2 | C19A U46C | 0.0665
3 | C18U C62A | 0.599
4 | C18U C62G | 0.543
5 | C19G A71G | 0.158
6 | C19G A71U | 0
7 | C19G C32U | 0.0302
8 | C18U U79A | 0.178
9 | C18U U79C | 0.168
10 | C19U A51G | 0.194
11 | C19G U37C | 0.0594
12 | C19A A51U | 0.175
13 | C19A A51G | 0.0712
14 | C19A A51C | 0.0733
15 | C19U C44G | 0.0519
16 | C18U G25A | 0.104
17 | C18U G25C | 0.201
18 | C18U G25U | 0.0297
19 | C19U A45U | 0.136
20 | C19G C36G | 0.0264
21 | C19A G73C | 0.058
22 | C19G C64G | 0.113
23 | C19G C64U | 0.056
24 | C19A U20C | 0

Row | Variant | self-cleavage
25 | C19G U79C | 0.0264
26 | C19G U79A | 0
27 | C19A A71G | 0.136
28 | C19A A71C | 0.0396
29 | C19A A71U | 0.0978
30 | C18U C58G | 0.778
31 | C19A A56C | 0.173
32 | C19A G68C | 0.149
33 | C19A G68U | 0.178
34 | C19A G35C | 0.125
35 | C19A G54A | 0.0536
36 | C19A C66G | 0.115
37 | C19A C66A | 0.211
38 | C18U G38C | 0.0297
39 | C18U G38U | 0.0875
40 | C18U U37G | 0.128
41 | C18U U37A | 0.0773
42 | C18U U37C | 0.554
43 | C19U C49A | 0.0378
44 | C19A C63U | 0.1
45 | C19A C63G | 0.256
46 | C19A G82U | 0.0898
47 | C19A G82C | 0.133
48 | C18U C49U | 0.587

Row | Variant | self-cleavage
49 | C19G G25A | 0.113
50 | C19G G25C | 0.156
51 | C18U G55U | 0.595
52 | C18U G55A | 0.919
53 | C19A U27G | 0.158
54 | C19G U65G | 0.111
55 | C19G U65A | 0.0354
56 | C19G U65C | 0
57 | C19G C22A | 0
58 | C19G C22G | 0
59 | C19G C22U | 0.0804
60 | C19U A78G | 0.0405
61 | C19U A78C | 0.172
62 | C18U C64G | 0.736
63 | C18U C64U | 0.751
64 | C18U C64A | 0.332
65 | C19A C41A | 0.0268
66 | C19A C41G | 0
67 | C19A C41U | 0.0382
68 | C19U A83U | 0.148
69 | C19U A83G | 0.0985
70 | C19A G40U | 0.0437
71 | C19A G40C | 0.0587
72 | C19G G73U | 0.0545

Row | Variant | self-cleavage
73 | C19A C86A | 0.273
74 | C19A C86U | 0.0674
75 | C19A C86G | 0.0548
76 | C19U C36G | 0.0723
77 | C19U C36A | 0.0639
78 | C18U C61U | 0.481
79 | C19A C32G | 0.116
80 | C19A C32U | 0.0841
81 | C18U G35U | 0.0791
82 | C18U G35A | 0.0906
83 | C19A C26A | 0.462
84 | C19A C26U | 0.929
85 | C19A C26G | 0.312
86 | C19G C62U | 0.116
87 | C19G C62A | 0.0264
88 | C19G C86U | 0.26
89 | C19A G38U | 0.0346
90 | C19G G81C | 0.0462
91 | C19G G81A | 0.117
92 | C19G G74U | 0.0601
93 | C19G G74C | 0.0665
94 | C18U U46C | 0.374
95 | C19G C21G | 0.0326
96 | C19G C21A | 0.208

Row | Variant | self-cleavage
97 | C19G A42U | 0
98 | C19G A42C | 0.0978
99 | C19G G28A | 0.237
100 | C19G A78G | 0.0875
101 | C19U C48U | 0.0978
102 | C19U C48G | 0.0594
103 | C19U C48A | 0.117
104 | C19U G39A | 0.0779
105 | C19U G39U | 0.0449
106 | C19A C33U | 0
107 | C19A C33A | 0.0852
108 | C19A C58G | 0.0519
109 | C19A C58U | 0.168
110 | C19G C61G | 0.0378
111 | C19G C61U | 0.0707
112 | C18U U23G | 0.383
113 | C19A U72G | 0.095
114 | C19A U72C | 0.0978
115 | C18U G40U | 0.314
116 | C19U G34U | 0.0755
117 | C19U C62U | 0.244
118 | C19U C62A | 0.142
119 | C19G A45U | 0.0396
120 | C19G A45C | 0.0583

Row | Variant | self-cleavage
121 | C19G C63G | 0.229
122 | C19G C63A | 0.0936
123 | C19A C21G | 0.166
124 | C19A C21A | 0.142
125 | C19G G82U | 0.0627
126 | C19G G82A | 0.102
127 | C18U U47C | 0.332
128 | C18U U47A | 0.293
129 | C18U G82C | 0.166
130 | C19G G68U | 0.119
131 | C19G U23G | 0.0811
132 | C19G U23A | 0
133 | C19A A70C | 0.0573
134 | C19A A70U | 0.277
135 | C19A A70G | 0.136
136 | C19A C30G | 0.0437
137 | C19A C30U | 0.0623
138 | C19U C85U | 0.22
139 | C19U G29C | 0.122
140 | C19U C41U | 0.173
141 | C19G A87G | 0.16
142 | C19G A87C | 0.0849
143 | C19G A87U | 0.0839
144 | C19G G54A | 0.116

Row | Variant | self-cleavage
145 | C19G G54U | 0.0594
146 | C19A G50A | 0.0231
147 | C19A G50U | 0.254
148 | C19A G59C | 0.04
149 | C19A | 0.123
150 | C19U | 0.152
151 | C19G | 0.0688
152 | C19G C26U | 0.249
153 | C19A G67C | 0.0615
154 | C19U A42U | 0.035
155 | C19A C61A | 0.12
156 | C19A C61G | 0.095
157 | C19A C61U | 0.0671
158 | C19G U20A | 0.0314
159 | C19G U20G | 0.138
160 | C19G G76U | 0.0791
161 | C18U C84A | 0.573
162 | C18U C84U | 0.44
163 | C18U C84G | 0.308
164 | C19G G40C | 0.102
165 | C19G G40A | 0.0573
166 | C19U C22G | 0.0692
167 | C19U G25A | 0.0252
